B1: AAAAAAAAAA, poly-alanine 10-mer peptide, spot 18 (peptide)
peptide: AAAAAAAAAA
notes: also called decamer of A
B2: cellulose-bound decamer of G (peptide)
peptide: GGGGGGGGGG
notes: also called G counterpart
B4: cellulose-bound decamer of W (peptide)
peptide: WWWWWWWWWW
notes: also called W counterpart
B5: cellulose-bound decamer of P (peptide)
peptide: PPPPPPPPPP
notes: also called P counterpart
B6: cellulose-bound decamer of I (peptide)
peptide: IIIIIIIIII
notes: also called stretch of I
B8: cellulose-bound decamer of Y (peptide)
peptide: YYYYYYYYYY
notes: also called stretch of Y
B10: LLLLLLLLLL, poly-leucine 10-mer peptide, spot 17 (peptide)
peptide: LLLLLLLLLL
notes: also called decamer of L
B11: cellulose-bound decamer of M (peptide)
peptide: MMMMMMMMMM
notes: also called stretch of M
B12: cellulose-bound decamer of F (peptide)
peptide: FFFFFFFFFF
notes: also called stretch of F

Key:
[1] = biological target: T1, ER-luminal part of the human Bri protein (human, UniProt Q9Y287 90-236, limits assumed); test: cellulose-bound decamer SPOT membrane, control
T1 construct: domain: ER-luminal part
T1 sequence (looked up): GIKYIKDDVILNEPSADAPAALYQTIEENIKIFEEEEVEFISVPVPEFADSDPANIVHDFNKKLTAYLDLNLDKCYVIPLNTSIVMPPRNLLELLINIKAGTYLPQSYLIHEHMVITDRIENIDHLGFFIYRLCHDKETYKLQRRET
Method: (§1) After blocking with 2% BSA for one hour and washing with T-TBS 4×1 h, the membranes were incubated with HRP-conjugated S-protein (Novagen, Madison, Wis.) diluted 1:5000.

[2] = biological target: B11; test: cellulose-bound decamer SPOT membrane, control
Method: as §1

[3] = biological target: B8; test: cellulose-bound decamer SPOT membrane, control
Method: as §1

[4] = biological target: B1; test: cellulose-bound decamer SPOT membrane, control
Method: as §1

[5] = biological target: B12; test: cellulose-bound decamer SPOT membrane, control
Method: as §1

[6] = biological target: B6; test: cellulose-bound decamer SPOT membrane, control
Method: as §1

[7] = biological target: B2; test: cellulose-bound decamer SPOT membrane, control
Method: as §1

[8] = biological target: B4; test: cellulose-bound decamer SPOT membrane, control
Method: as §1

[9] = biological target: B10; test: cellulose-bound decamer SPOT membrane, control
Method: as §1

[10] = biological target: B5; test: cellulose-bound decamer SPOT membrane, control
Method: as §1

[11] = biological target: T2, LVVVVIVGAL (positions 22-31 in SP-C^I23V), spots 21 and 23 (human); test: peptide SPOT membrane, S-protein-HRP, ECL
T2 construct: also called spot 21; spot 23
T2 peptide: LVVVVIVGAL
Method: (§2) SPOT membranes (Frank R, J Immunol Meth, 267:13-26, 2002), containing 10-residue fragments derived from SP-C(SP-C^I23V) were purchased from Sigma Genosys (Cambridge, England). […] The membranes were then blocked with 2% BSA in TBS for one hour. After washing with T-TBS 4×1 h, the membranes were incubated with HRP-conjugated S-protein (Novagen, Madison, Wis.) diluted 1:5000 in T-TBS containing 2% BSA. The membranes were then washed again with T-TBS 4×1 h and binding was visualized by ECL according to the manufacturer's instructions.

[12] = biological target: T3, KRLLLLLLLL, Leu-substituted version of SP-C 11-20, spot 8 (human); test: peptide SPOT membrane, spot 8
T3 peptide: KRLLLLLLLL
Method: as §2

[13] = biological target: B11; test: cellulose-bound decamer SPOT membrane, 1 µg/ml protein, S-protein-HRP, ECL
Method: as §1

[14] = biological target: B8; test: as above
Method: as §1

[15] = biological target: B12; test: as above
Method: as §1

[16] = biological target: B6; test: as above
Method: as §1

[17] = biological target: B10; test: as above
Method: as §1

[18] = biological target: B2; test: cellulose-bound decamer SPOT membrane, S-protein-HRP, ECL
Method: as §1

[19] = biological target: B4; test: as above
Method: as §1

[20] = biological target: B5; test: as above
Method: as §1

[21] = biological target: T4, RLLLLLLLLL, Leu-substituted version of SP-C 12-21, spot 11 (human); test: peptide SPOT membrane, spot 11
T4 peptide: RLLLLLLLLL
Method: as §2

[22] = biological target: B1; test: peptide SPOT membrane, S-protein-HRP, ECL
Method: as §2

[23] = biological target: T5, KRAAAAAAAA, Ala-substituted version of SP-C 11-20, spot 9 (human); test: peptide SPOT membrane, S-protein-HRP, ECL
T5 peptide: KRAAAAAAAA
Method: as §2

[24] = biological target: T6, RAAAAAAAAA, Ala-substituted version of SP-C 12-21, spot 12 (human); test: peptide SPOT membrane, S-protein-HRP, ECL
T6 peptide: RAAAAAAAAA
Method: as §2

[25] = biological target: B11; test: cellulose-bound decamer SPOT membrane
Method: as §1

[26] = biological target: B8; test: cellulose-bound decamer SPOT membrane
Method: as §1

[27] = biological target: B12; test: cellulose-bound decamer SPOT membrane
Method: as §1

[28] = biological target: B6; test: cellulose-bound decamer SPOT membrane
Method: as §1

[29] = biological target: B10; test: cellulose-bound decamer SPOT membrane
Method: as §1

## B1
[1]
  binding result: no binding

## B2
[1]
  binding result: no binding

B3: Recombinant human CTproSP-C^L188Q, S-tagged (other)
chain: HMSQKHTEMVLEMSIGAPEAQQRLALSEHLVTTATFSIGSTGLVVYDYQQLLIAYKPAPGTCCYIMKIAPESIPSLEALNRKVHNFQMECSLQAKPAVPTSKLGQAEGRDAGSAPSGGDPAFLGMAVNTQCGEVPLYYI
notes: also called mutant human CTproSP-C^L188Q; not shown: S-tag left after thrombin cleavage
[2]
  binding result: no binding
[3]
  binding result: no binding
[4]
  binding result: no binding
[5]
  binding result: no binding
[6]
  binding result: no binding
[7]
  binding result: no binding
[8]
  binding result: no binding
[9]
  binding result: no binding
[10]
  binding result: no binding
[11]
  binding result: no binding (tested: 1 µg/ml)

## B4
[1]
  binding result: no binding

## B5
[1]
  binding result: no binding

## B6
[1]
  binding result: no binding

B7: S-tagged recombinant human CTproSP-C (proSP-C^59-197) (other)
chain: GSGMKETAAAKFERQHMDSPDLGTDDDDKAMAHMSQKHTEMVLEMSIGAPEAQQRLALSEHLVTTATFSIGSTGLVVYDYQQLLIAYKPAPGTCCYIMKIAPESIPSLEALTRKVHNFQMECSLQAKPAVPTSKLGQAEGRDAGSAPSGGDPAFLGMAVSTLCGEVPLYYI
notes: SEC and ESI-MS show mainly trimers and oligomers of trimers; also called CTC; C-terminal domain of lung surfactant protein C precursor
[12]
  binding result: binds
[13]
  binding result: binds
[14]
  binding result: binds
[15]
  binding result: binds
[16]
  binding result: binds
[17]
  binding result: binds
[18]
  binding result: no binding (tested: 1 µg/ml)
[19]
  binding result: no binding (tested: 1 µg/ml)
[20]
  binding result: no binding (tested: 1 µg/ml)
[21]
  binding result: binds
[22]
  binding result: no binding (tested: 1 µg/ml)
[23]
  binding result: no binding (tested: 1 µg/ml)
[24]
  binding result: no binding (tested: 1 µg/ml)

## B8
[1]
  binding result: no binding

B9: Recombinant human CTproSP-CBrichos (human proSP-C^94-197), S-tagged (other)
chain: FSIGSTGLVVYDYQQLLIAYKPAPGTCCYIMKIAPESIPSLEALNRKVHNFQMECSLQAKPAVPTSKLGQAEGRDAGSAPSGGDPAFLGMAVNTLCGEVPLYYI
notes: also called Brichos domain of human CTproSP-C; Brichos region; not shown: S-tag and vector residues from pET-32c left after thrombin cleavage
[25]
  binding result: binds
[26]
  binding result: binds
[27]
  binding result: binds
[28]
  binding result: binds
[29]
  binding result: binds

## B10
[1]
  binding result: no binding

## B11
[1]
  binding result: no binding

## B12
[1]
  binding result: no binding

Source: patent publication US20140243272A1 (ALPHABETA, published 2014)
